The target of one series is T1, V5-Tin (UniProt P22711).
T1 sequence: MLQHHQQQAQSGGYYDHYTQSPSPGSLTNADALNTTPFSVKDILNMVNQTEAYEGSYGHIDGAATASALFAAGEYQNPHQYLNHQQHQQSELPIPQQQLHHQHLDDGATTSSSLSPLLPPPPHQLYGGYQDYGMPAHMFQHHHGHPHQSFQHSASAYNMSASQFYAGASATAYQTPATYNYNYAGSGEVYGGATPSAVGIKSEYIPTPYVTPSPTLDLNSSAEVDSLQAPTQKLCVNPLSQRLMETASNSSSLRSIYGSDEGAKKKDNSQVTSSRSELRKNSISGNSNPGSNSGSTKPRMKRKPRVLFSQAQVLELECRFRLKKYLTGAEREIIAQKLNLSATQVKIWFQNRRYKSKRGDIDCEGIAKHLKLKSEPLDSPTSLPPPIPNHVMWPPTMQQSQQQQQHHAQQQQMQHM
In words: EMSA. To be noted: 20 mM HEPES pH 7.9, 1.4 mM MgCl2, 1 mM ZnSO4, 40 mM KCl, 0.1 mM EDTA, 5% glycerol, 0.2 ug poly(dI-dC), 0.1 ug BSA, 10 mM DTT, 0.1% NP40, 30 ul, 20 min; gel 6% …. (In general: A gel shift assay detects complexes by their altered migration in electrophoresis.)

The target of series [1] is GST-Ubx^FL (full length) (Drosophila) (UniProt P83949). In words: pull-down; GST or GST-Ubx fusion proteins in equal amounts with His-purified proteins; affinity buffer (20 mM HEPES, 10 uM ZnCl2, 0.1% Triton, 2 mM EDTA) with NaCl, 1 mM DTT, 0.1 mM PMSF; 2 h at 4 °C; western blot. (A western blot detects proteins with antibodies after separation by electrophoresis.)
Sequence of GST-Ubx^FL (full length) (Drosophila) (P83949 whole entry, the tested form may be a part): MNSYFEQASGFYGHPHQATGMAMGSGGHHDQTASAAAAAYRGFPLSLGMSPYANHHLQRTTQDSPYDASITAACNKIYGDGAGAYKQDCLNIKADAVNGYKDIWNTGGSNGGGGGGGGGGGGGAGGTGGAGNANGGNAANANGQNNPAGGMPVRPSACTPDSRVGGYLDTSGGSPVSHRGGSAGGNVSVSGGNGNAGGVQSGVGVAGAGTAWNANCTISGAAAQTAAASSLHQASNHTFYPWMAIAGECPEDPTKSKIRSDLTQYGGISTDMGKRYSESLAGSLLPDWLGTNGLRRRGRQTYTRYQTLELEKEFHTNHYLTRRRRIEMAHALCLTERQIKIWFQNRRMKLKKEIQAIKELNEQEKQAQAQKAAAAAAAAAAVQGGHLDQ

Some results are limits rather than exact numbers.

Regarding “CAATCGCTGTAAATAAATAGGAGCCGCAGATCAAAGGCCTATCAATTAGCACCCATTTCGATTATGCTGCATGCTGCATATGCAGCACTTGCACTGCCTGCAATTCACACCCAATTAGTAATAAATTTGAATGCGCGCTGCAATTTGCCG (double strand) [dpp674 enhancer fragment F3 (150 bp)]”, in the series with V5-Tin, the binding entry is “binds”.

B1: V5-Tin, His-purified (natural protein)
chain: T1 sequence
Regarding B1, the fold stronger than the Ubx-Exd interaction (signal in pull-down compared with input) in series [1] was over 10 fold.

For the origin of these results see paper PMC7069958, “Multi-level and lineage-specific interactomes of the Hox transcription factor Ubx contribute to its functional specificity”.
